Square brackets hold non-standard residues; d marks the D form. Ends that are not written are not given here. Nva = CCC[C@H](N)C(=O)O

From patent US20260069536A1, “COMPOSITIONS, SYSTEMS, AND METHODS FOR DELIVERY OF THERAPEUTICS” (THE JOHNS HOPKINS UNIVERSITY, priority 2022, published 2026) come the findings set out here.

The subject of data set [1] is mouse heart transplant model. The experiment in a line: Mouse heart transplant model, localized Tofa hydrogel with CTLA4-Ig. The class given is in vivo. Conditions: localized release around the transplanted heart, single administration. From the text: FIG. 3A is a schematic of localized delivery of Tofacitinib (Tofa) microcrystals from a hydrogel (MTH) implanted in mice receiving heterotopic heart transplant. FIG. 3B is survival curves of C57Bl/6 mice receiving BALB/c heart transplants under the indicated treatments.
A peptide hydrogel (MAX8) that self-assembles at physiological conditions and encapsulated crystalline Tofa (cJAKi-Hydro) was used to assess that the localized release of a JAKi (Tofa) around the transplanted heart would have synergism with CTLA4-Ig as systemic Tofa administration (FIG. 3A).

The subject of a further data set is dendritic cells. The experiment in a line: Maturation of dendritic cells under Tofa. The class given is cell-based.
Another data set has as its system Treg. The experiment in a line: Suppressive activity of Treg under Tofa. The class given is cell-based.
In data set [2] the test system is full MHC mismatch (C57BL/6 to BALB/c) mouse heart transplantation model. Kind of data set: Mouse heart transplantation model, systemic Tofa with CTLA4-Ig. The class given is in vivo.
Data set [3] is described as follows: Release of Ani2-NLCs from peptide gels in the absence of enzyme. The class given is physicochemical. As for the experimental part: (§1) Preliminary experiments were conducted on the proteolytic stability of the peptides and the impact on the release of the encapsulated NLCs. To investigate protease-mediated release, comparative release rates of Ani2-NLCs were studied with respect to nVET2 and IVET1 gels in trypsin-rich and MMP12-rich environments. Ani2-NLCs are retained within the gels over extended periods of time due to their negative zeta potential that allows them to bind to the positively charged gel network.
(§2) Upon trypsinization, both IVET1 and nVET2 gels show faster release rates of Ani2-NLCs than those observed in the absence of the protease. […] These relative release trends of IVET1 and nVET2 gels are somewhat consistent with the degradation of the individual peptides by trypsin and MMP12. Trypsin hydrolyzes proteins at the carboxyl side of lysine and arginine amino acid residues and as such, the peptides IVET1 and nVET2 contain six cleavable sites with respect to trypsin. On the other hand, MMP12 recognizes a single cleavage site (PLG↓VR) within each of the peptide sequences. Thus, the observed rate of release of the NLCs is proportional to the number of protease-specific cleavage sites within the peptide sequence
At the end of 10 days, less than 20% of Ani2-NLCs were released in the absence of enzyme. Thus, two distinct release regimes of tofacitinib are attainable with simultaneous incorporation of the drug as microcrystalline deposits and as Tofa-NLCs.

Data set [4] in a line: Release of microcrystalline tofacitinib from peptide gels (UV-Vis). Format: physicochemical. Conditions: 32 mM microcrystalline deposits, after 10 days. As for the experimental part:
The release rates of microcrystalline tofacitinib from select peptide gels (MAX8 and HLT2) was determined as in Majumder, P., et al., Small 2020, 16, 2002791, incorporated herein by reference (FIG. 18A). As such, the release rates were established for the enzyme cleavable peptides (nVET1 and IVET1) at two different drug loads—16 mM and 32 mM. The release of tofacitinib was quantified using UV-Vis spectroscopy (λ=285 nm). […] The release profile is thus dependent on the final concentration of drug loaded and consistent with crystal dissolution being rate-determining.

Data set [5] addresses T1, MMP12 (Homo sapiens, UniProt P39900). Kind of data set: Protease-mediated release of NLC from peptide gels, MMP12. The class given is physicochemical. Conditions: MMP12 treated gels. As for the experimental part:
as §1, §2

The test system of a further data set is trypsin. The experiment in a line: Protease-mediated release of NLC from peptide gels, trypsin. Format: physicochemical. Conditions: first 24 hours; for increase in release rate upon trypsinization: relative to absence of protease; for Ani2-NLCs released: with trypsin. How it is done: FIGS. 10A and 10B show protease responsive LNp release. […] FIG. 10B is a graph of the release profiles of Ani2-NLC from Peptide-4 gels in response to trypsin.
IVET2—SEQ ID NO: 7; IVET1—SEQ ID NO: 8; nVET2—SEQ ID NO: 9; nVET1—SEQ ID NO: 10.
as §1, §2

Data set [6] addresses T1, MMP12. Kind of data set: Rheology of MMP12-treated peptide gels. The class given is physicochemical. Conditions: 150 ul, 1 wt % gels, 37° C., MMP12, 1×HBS pH 7.4, 12 days. As for the experimental part:
To provide further insight into the mechanistic effects of the gel release rates described above, the rheological properties of the MMP12-treated peptide gels were investigated. For this study, pre-formed IVET1 gels (150 ul, 1 wt %) were incubated at 37° C. with MMP12 (1×HBS, pH 7.4) and the storage modulus at 6.3 rad/s (obtained from frequency sweep measurements) was plotted at different time points for each gel. […] Despite peptide cleavage, the gels remained intact due to the stable cross-linked fiber network supported by the inter-hairpin hydrophobic contacts of the peptides upon self-assembly.

Data set [7] in a line: Hydrogel toxicity after SQ injection in skin flap. Conditions: SQ injection after flap raise, visual monitoring.
Description: To this end, the condition of transplants was replicated by surgically separating the skin of the prospective area of injection (flap raise) followed by suturing the edges. After completion of the surgical procedure, empty hydrogel or Tofa containing hydrogel was injected SQ and the area monitored visually for any macroscopic sign of toxicity.
Data set [8] is described as follows: Gel stiffness (storage modulus G′) after NLC encapsulation. The class given is physicochemical. Conditions: following encapsulation of neutral or negatively-charged NLCs. An excerpt:
FIGS. 6A-6C show LNp encapsulation in a hydrogel. FIG. 6A is a graph of the comparative storage moduli (G′) of MAX8 gels with and without Neut-NLCs and Ani2-NLCs. FIG. 6B is a graph of the cumulative release profiles of Neut-NLC and Ani2-NLC from MAX8 gels. FIG. 6C is an image of LNp retention by MAX8 gels. A lipophilic dye (pink) was encapsulated within the NLCs to quantify release after 5 days.
To improve particle retention within the gel, the nanoparticles were modified to achieve a slightly negative surface charge (the hydrogel network is positively charged) by adding a small percentage of anionic surfactant (Glycolic Acid Ethoxylate Oleyl Ether) together with the Gelucire 44/14. Two different ratios of these surfactants were used until similarly sized nanoparticles were achieved.

[9] abbreviates: absence of enzyme, end of 10 days.
[10] abbreviates: absence of trypsin (control gel), first 24 hours.

T1 sequence (P39900 106-470, species assumed): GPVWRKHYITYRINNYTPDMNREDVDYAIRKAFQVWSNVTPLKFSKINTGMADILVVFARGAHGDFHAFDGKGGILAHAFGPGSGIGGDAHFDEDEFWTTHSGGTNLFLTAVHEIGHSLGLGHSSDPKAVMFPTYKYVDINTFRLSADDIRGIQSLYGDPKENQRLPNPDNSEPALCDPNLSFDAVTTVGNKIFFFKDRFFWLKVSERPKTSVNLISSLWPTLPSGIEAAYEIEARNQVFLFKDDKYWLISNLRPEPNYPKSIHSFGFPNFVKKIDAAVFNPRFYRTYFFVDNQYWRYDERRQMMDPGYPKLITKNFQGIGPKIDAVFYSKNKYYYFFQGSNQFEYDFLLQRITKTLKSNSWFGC

For `C[C@@H]1CCN(C(=O)CC#N)C[C@@H]1N(C)c1ncnc2[nH]ccc12` [Tofa, 3-((3R,4R)-4-methyl-3-(methyl(7H-pyrrolo[2,3-d]pyrimidin-4-yl)amino)piperidin-1-yl)-3-oxopropanenitrile], the graft survival result in data set [1] is “as effective at synergizing with systemic CTLA4-Ig as 16 oral gavage administrations”. For the same molecule, in the data set on dendritic cells (dendritic cells), the “up-regulation of MHC-II molecules” value was “did not prevent the up-regulation of MHC-II molecules”. The “maturation of dendritic cells” value in the data set on dendritic cells (upregulation of costimulatory molecules and secretion of pro-inflammatory cytokines) is “very effective at preventing the maturation of dendritic cells”. In the data set on Treg, the “suppressive activity of Treg” value is “only minimally affected the suppressive activity of Treg”. In [2] (Tofa+CTLA4-Ig), the “differentiation of TH1 effector T cells” value is on record as “inhibition of the differentiation of TH1 effector T cells” and the “regulatory T cells (Treg)” value is reported as “accumulation of a high frequency of regulatory T cells”. Also, in [2] (Tofa+CTLA4-Ig, hearts kept ischemic for 4h before transplantation), the “graft survival with ischemic hearts” value is listed as “improvement in survival was unaffected”. In data set [2] (combination with CTLA4-Ig, Tofa POD-1 to POD6, twice daily via oral gavage), the graft survival entry is “promoted long-term graft survival”.

For “(nV)K(nV)E(nV)KVKV^DPPLGVRTK(nV)K(nV) ([Nva]K[Nva]E[Nva]KVKVPPLGVRTK[Nva]K[Nva]; also: P10 written ^DP (meaning not given here)) [nVET1]”, the Ani2-NLCs released result in data set [3] (setting [9]) is “less than 20%”. The drug release entry in data set [4] was “less than 60%”.

As to “(nV)KTE(nV)KVKV^DPPLGVRTK(nV)K(nV) ([Nva]KTE[Nva]KVKVPPLGVRTK[Nva]K[Nva]; also: P10 written ^DP (meaning not given here)) [nVET2]”, the Ani2-NLCs released in [3] (setting [10]) came out at 10%. Further, the “release rate of Ani2-NLCs” value in the data set with MMP12 [5] is “intermediate between their respective trypsin-rich and protease-free gel environments”. For the same molecule, in the data set with trypsin, the “increase in release rate upon trypsinization” value is given as 3 fold and the Ani2-NLCs released is on record as 30%.

Turning to “IKVEIKVKV^DPPLGVRTKIKV (IKVEIKVKVPPLGVRTKIKV; also: P10 written ^DP (meaning not given here)) [IVET1]”, the results for the Ani2-NLCs released result (in [3] (setting [9]); in [3] (setting [10]); in the data set on trypsin) were “less than 20%”, 1.5% and 17.4%, respectively. Also, the drug release result in [4] is “less than 60%”. For the same molecule, the “release rate of Ani2-NLCs” value in the data set with MMP12 [5] was “intermediate between their respective trypsin-rich and protease-free gel environments”. Also, the “storage modulus at 6.3 rad/s” value with MMP12 [6] is “relatively stable storage modulus”. Moreover, the “increase in release rate upon trypsinization” value with trypsin is given as roughly 12 fold.

As for “VKVKVKVKV^DPPTKVEVKVKV (VKVKVKVKVPPTKVEVKVKV; not fully specified (residue 10)) [MAX8]”, the “macroscopic sign of toxicity” value in data set [7] was “absence of any evidence of toxicity”. The gel stiffness entry in data set [8] was “stiffness is maintained”.
